In the test the target is light chain of the anti-IL8 IgG1 mAb of the CHO DP-12 cell line. The test can be described thus: SEC + native MS.

One may read the stoichiometry N as the number of molecules, sites or subunits per partner or assembly. With “light chain of the anti-IL8 IgG1 mAb of the CHO DP-12 cell line (antibody)”, the stoichiometry N stood at 2.
